From US20230242902A1, “A HIGHLY ERROR-PRONE […] R[…] FOR TARGETED CONTINUOUS EVOLUTION IN VIVO” (The Regents of the University of California, priority 2017, published 2023)

Tested on: p1
Test: p1 copy number by p1-encoded mKate2 fluorescence
Assay type: cell-based, S. cerevisiae
Conditions: OR-Y24, measured in triplicate
Outline: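 Read-out is mKate2 fluorescence of saturated OR-Y24 cultures, measured by flow cytometry or by plate reader with OD600 normalization. Flow values were converted by a qPCR-derived linear calibration; plate values were scaled to a w.t. TP-DNAP1 control.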

| Molecule | Mean fold-increase over w.t. (p1 copy number) [fold] |
| --- | --- |
| T698L: TP-DNAP1 variant (protein) MDYKDKALNDLRNVYADFDSLPLDFRQILIKDRATLLQKEDVEKKILERQEDAKKYAEYLKQSEIPERISLPNIKRHKGVSISFEETSEDMVLEPRPFIFDGLNIRCFRRETIFSLKNKILNMVKESSSFKNVSRQSVSFMYFKIFNKGKVIASTKSVNIYEDKIDERLEDLCNNFDDVLKKIIDVTYGYESLFVSETYSYVIFYAKSIYFPQPRCVNNWGNNIPNILTFDSFKLFTANKNNVSCIKQCSRFLWQKDFNTLEEMIEYKNGNICIVTPQLHINDVRDIKSFNDIRLYSESPIKTFSVIDNTITYLFYFKEHLGVIFNITKSRHDRRVTKFSPLSKFSDVKNITVCFDIESYFDPEKESNQVNIPFICCASIIYNKVIGNIVDFEGRDCVAQMIEYVVDICGELNISSVELIAHNGGGYDFHYILSSMYNPAAIKNILIRNNSFISFNFAHDGVKFSVKDSYSFLLCSLANASKAFLNEETFKKTDFPHHDLKTADDLYKVYKEWSSVNTEINHVVEKEKLLITSEHIVNFTKNDKSKTLIEWSKDYCRNDVLVLSKVWLEFKNAVEDIFNCELVDQTMTLAGLSYKLFQANMPFDVELRHPNKEDYFNMREALIGGRCISVNGIYKDVLCLDVKSLYPASMAFYDQPYGSFKRVSSRPKDELGIYYVRVTPNRNNKSNFFPIRSHNKILYNNFEESTYIAWYTNVDIDIGLSEGHNIEYIPFDSYGNIGYSWSKKGKIFEKYIKDVLYKLKIKYEKQNNKVKRNVIKIIMNSLWGKFAQKWVNFEYFIKSEDDIDFESEEAYKIWDTDFMLIKKIKESTYSSKPIQNGVFTLSWARYHMKSIWDAGAKEGAECIYSDTDSIFVHKEHFKKNAKFMLNGLKVPIIGSEVGQLELECEFDKLLCAGKKQYMGFYTYFQDGKPCIKEKKRFKGIPSNYIIPELYAHLLSGADKEAKIQFLKFRREWGSVKGYIENKTVKAT | 2 |
| T698M: TP-DNAP1 variant (protein) MDYKDKALNDLRNVYADFDSLPLDFRQILIKDRATLLQKEDVEKKILERQEDAKKYAEYLKQSEIPERISLPNIKRHKGVSISFEETSEDMVLEPRPFIFDGLNIRCFRRETIFSLKNKILNMVKESSSFKNVSRQSVSFMYFKIFNKGKVIASTKSVNIYEDKIDERLEDLCNNFDDVLKKIIDVTYGYESLFVSETYSYVIFYAKSIYFPQPRCVNNWGNNIPNILTFDSFKLFTANKNNVSCIKQCSRFLWQKDFNTLEEMIEYKNGNICIVTPQLHINDVRDIKSFNDIRLYSESPIKTFSVIDNTITYLFYFKEHLGVIFNITKSRHDRRVTKFSPLSKFSDVKNITVCFDIESYFDPEKESNQVNIPFICCASIIYNKVIGNIVDFEGRDCVAQMIEYVVDICGELNISSVELIAHNGGGYDFHYILSSMYNPAAIKNILIRNNSFISFNFAHDGVKFSVKDSYSFLLCSLANASKAFLNEETFKKTDFPHHDLKTADDLYKVYKEWSSVNTEINHVVEKEKLLITSEHIVNFTKNDKSKTLIEWSKDYCRNDVLVLSKVWLEFKNAVEDIFNCELVDQTMTLAGLSYKLFQANMPFDVELRHPNKEDYFNMREALIGGRCISVNGIYKDVLCLDVKSLYPASMAFYDQPYGSFKRVSSRPKDELGIYYVRVTPNRNNKSNFFPIRSHNKIMYNNFEESTYIAWYTNVDIDIGLSEGHNIEYIPFDSYGNIGYSWSKKGKIFEKYIKDVLYKLKIKYEKQNNKVKRNVIKIIMNSLWGKFAQKWVNFEYFIKSEDDIDFESEEAYKIWDTDFMLIKKIKESTYSSKPIQNGVFTLSWARYHMKSIWDAGAKEGAECIYSDTDSIFVHKEHFKKNAKFMLNGLKVPIIGSEVGQLELECEFDKLLCAGKKQYMGFYTYFQDGKPCIKEKKRFKGIPSNYIIPELYAHLLSGADKEAKIQFLKFRREWGSVKGYIENKTVKAT | 1.75 |
| E703H: TP-DNAP1 variant (protein) MDYKDKALNDLRNVYADFDSLPLDFRQILIKDRATLLQKEDVEKKILERQEDAKKYAEYLKQSEIPERISLPNIKRHKGVSISFEETSEDMVLEPRPFIFDGLNIRCFRRETIFSLKNKILNMVKESSSFKNVSRQSVSFMYFKIFNKGKVIASTKSVNIYEDKIDERLEDLCNNFDDVLKKIIDVTYGYESLFVSETYSYVIFYAKSIYFPQPRCVNNWGNNIPNILTFDSFKLFTANKNNVSCIKQCSRFLWQKDFNTLEEMIEYKNGNICIVTPQLHINDVRDIKSFNDIRLYSESPIKTFSVIDNTITYLFYFKEHLGVIFNITKSRHDRRVTKFSPLSKFSDVKNITVCFDIESYFDPEKESNQVNIPFICCASIIYNKVIGNIVDFEGRDCVAQMIEYVVDICGELNISSVELIAHNGGGYDFHYILSSMYNPAAIKNILIRNNSFISFNFAHDGVKFSVKDSYSFLLCSLANASKAFLNEETFKKTDFPHHDLKTADDLYKVYKEWSSVNTEINHVVEKEKLLITSEHIVNFTKNDKSKTLIEWSKDYCRNDVLVLSKVWLEFKNAVEDIFNCELVDQTMTLAGLSYKLFQANMPFDVELRHPNKEDYFNMREALIGGRCISVNGIYKDVLCLDVKSLYPASMAFYDQPYGSFKRVSSRPKDELGIYYVRVTPNRNNKSNFFPIRSHNKITYNNFHESTYIAWYTNVDIDIGLSEGHNIEYIPFDSYGNIGYSWSKKGKIFEKYIKDVLYKLKIKYEKQNNKVKRNVIKIIMNSLWGKFAQKWVNFEYFIKSEDDIDFESEEAYKIWDTDFMLIKKIKESTYSSKPIQNGVFTLSWARYHMKSIWDAGAKEGAECIYSDTDSIFVHKEHFKKNAKFMLNGLKVPIIGSEVGQLELECEFDKLLCAGKKQYMGFYTYFQDGKPCIKEKKRFKGIPSNYIIPELYAHLLSGADKEAKIQFLKFRREWGSVKGYIENKTVKAT | 1.53 |
| E298G, S305F: TP-DNAP1 variant (protein) MDYKDKALNDLRNVYADFDSLPLDFRQILIKDRATLLQKEDVEKKILERQEDAKKYAEYLKQSEIPERISLPNIKRHKGVSISFEETSEDMVLEPRPFIFDGLNIRCFRRETIFSLKNKILNMVKESSSFKNVSRQSVSFMYFKIFNKGKVIASTKSVNIYEDKIDERLEDLCNNFDDVLKKIIDVTYGYESLFVSETYSYVIFYAKSIYFPQPRCVNNWGNNIPNILTFDSFKLFTANKNNVSCIKQCSRFLWQKDFNTLEEMIEYKNGNICIVTPQLHINDVRDIKSFNDIRLYSGSPIKTFFVIDNTITYLFYFKEHLGVIFNITKSRHDRRVTKFSPLSKFSDVKNITVCFDIESYFDPEKESNQVNIPFICCASIIYNKVIGNIVDFEGRDCVAQMIEYVVDICGELNISSVELIAHNGGGYDFHYILSSMYNPAAIKNILIRNNSFISFNFAHDGVKFSVKDSYSFLLCSLANASKAFLNEETFKKTDFPHHDLKTADDLYKVYKEWSSVNTEINHVVEKEKLLITSEHIVNFTKNDKSKTLIEWSKDYCRNDVLVLSKVWLEFKNAVEDIFNCELVDQTMTLAGLSYKLFQANMPFDVELRHPNKEDYFNMREALIGGRCISVNGIYKDVLCLDVKSLYPASMAFYDQPYGSFKRVSSRPKDELGIYYVRVTPNRNNKSNFFPIRSHNKITYNNFEESTYIAWYTNVDIDIGLSEGHNIEYIPFDSYGNIGYSWSKKGKIFEKYIKDVLYKLKIKYEKQNNKVKRNVIKIIMNSLWGKFAQKWVNFEYFIKSEDDIDFESEEAYKIWDTDFMLIKKIKESTYSSKPIQNGVFTLSWARYHMKSIWDAGAKEGAECIYSDTDSIFVHKEHFKKNAKFMLNGLKVPIIGSEVGQLELECEFDKLLCAGKKQYMGFYTYFQDGKPCIKEKKRFKGIPSNYIIPELYAHLLSGADKEAKIQFLKFRREWGSVKGYIENKTVKAT | 2.06 |
| E703R: TP-DNAP1 variant (protein) MDYKDKALNDLRNVYADFDSLPLDFRQILIKDRATLLQKEDVEKKILERQEDAKKYAEYLKQSEIPERISLPNIKRHKGVSISFEETSEDMVLEPRPFIFDGLNIRCFRRETIFSLKNKILNMVKESSSFKNVSRQSVSFMYFKIFNKGKVIASTKSVNIYEDKIDERLEDLCNNFDDVLKKIIDVTYGYESLFVSETYSYVIFYAKSIYFPQPRCVNNWGNNIPNILTFDSFKLFTANKNNVSCIKQCSRFLWQKDFNTLEEMIEYKNGNICIVTPQLHINDVRDIKSFNDIRLYSESPIKTFSVIDNTITYLFYFKEHLGVIFNITKSRHDRRVTKFSPLSKFSDVKNITVCFDIESYFDPEKESNQVNIPFICCASIIYNKVIGNIVDFEGRDCVAQMIEYVVDICGELNISSVELIAHNGGGYDFHYILSSMYNPAAIKNILIRNNSFISFNFAHDGVKFSVKDSYSFLLCSLANASKAFLNEETFKKTDFPHHDLKTADDLYKVYKEWSSVNTEINHVVEKEKLLITSEHIVNFTKNDKSKTLIEWSKDYCRNDVLVLSKVWLEFKNAVEDIFNCELVDQTMTLAGLSYKLFQANMPFDVELRHPNKEDYFNMREALIGGRCISVNGIYKDVLCLDVKSLYPASMAFYDQPYGSFKRVSSRPKDELGIYYVRVTPNRNNKSNFFPIRSHNKITYNNFRESTYIAWYTNVDIDIGLSEGHNIEYIPFDSYGNIGYSWSKKGKIFEKYIKDVLYKLKIKYEKQNNKVKRNVIKIIMNSLWGKFAQKWVNFEYFIKSEDDIDFESEEAYKIWDTDFMLIKKIKESTYSSKPIQNGVFTLSWARYHMKSIWDAGAKEGAECIYSDTDSIFVHKEHFKKNAKFMLNGLKVPIIGSEVGQLELECEFDKLLCAGKKQYMGFYTYFQDGKPCIKEKKRFKGIPSNYIIPELYAHLLSGADKEAKIQFLKFRREWGSVKGYIENKTVKAT | 1.84 |
| E703W: TP-DNAP1 variant (protein) MDYKDKALNDLRNVYADFDSLPLDFRQILIKDRATLLQKEDVEKKILERQEDAKKYAEYLKQSEIPERISLPNIKRHKGVSISFEETSEDMVLEPRPFIFDGLNIRCFRRETIFSLKNKILNMVKESSSFKNVSRQSVSFMYFKIFNKGKVIASTKSVNIYEDKIDERLEDLCNNFDDVLKKIIDVTYGYESLFVSETYSYVIFYAKSIYFPQPRCVNNWGNNIPNILTFDSFKLFTANKNNVSCIKQCSRFLWQKDFNTLEEMIEYKNGNICIVTPQLHINDVRDIKSFNDIRLYSESPIKTFSVIDNTITYLFYFKEHLGVIFNITKSRHDRRVTKFSPLSKFSDVKNITVCFDIESYFDPEKESNQVNIPFICCASIIYNKVIGNIVDFEGRDCVAQMIEYVVDICGELNISSVELIAHNGGGYDFHYILSSMYNPAAIKNILIRNNSFISFNFAHDGVKFSVKDSYSFLLCSLANASKAFLNEETFKKTDFPHHDLKTADDLYKVYKEWSSVNTEINHVVEKEKLLITSEHIVNFTKNDKSKTLIEWSKDYCRNDVLVLSKVWLEFKNAVEDIFNCELVDQTMTLAGLSYKLFQANMPFDVELRHPNKEDYFNMREALIGGRCISVNGIYKDVLCLDVKSLYPASMAFYDQPYGSFKRVSSRPKDELGIYYVRVTPNRNNKSNFFPIRSHNKITYNNFWESTYIAWYTNVDIDIGLSEGHNIEYIPFDSYGNIGYSWSKKGKIFEKYIKDVLYKLKIKYEKQNNKVKRNVIKIIMNSLWGKFAQKWVNFEYFIKSEDDIDFESEEAYKIWDTDFMLIKKIKESTYSSKPIQNGVFTLSWARYHMKSIWDAGAKEGAECIYSDTDSIFVHKEHFKKNAKFMLNGLKVPIIGSEVGQLELECEFDKLLCAGKKQYMGFYTYFQDGKPCIKEKKRFKGIPSNYIIPELYAHLLSGADKEAKIQFLKFRREWGSVKGYIENKTVKAT | 1.72 |
